Target: HA-tagged N100A zDHHC17 (mouse) (UniProt Q80TN5)

- protein levels of ankyrin-B-GFP (western blot) co-expressed with N100A zDHHC17 in HEK293T cells, against WT zDHHC17 or zDHHA17: 3 fold
Substance: Human ankyrin-B-GFP (220-kDa splice variant of ankyrin-B)
